Data: paper PMC9309721
Each block holds one molecule with its values, some of them ahead of it.

Key:
TFIIB = TFIIB (UniProt Q00403); assay: FLAG co-immunoprecipitation, TFIIB immunoblot; details: reference: FLAG-WT-HSF1
[1] = biological target: T1, FLAG-tagged WT-HSF1 (human), Q00613; assay: cross-linking; HEK-293 cells transfected for 48 h with WT- or T142A-HSF1 with or without AKT1 or CK2; cells fixed with 1 mM EGS for 30 min at RT, quenched with 10 mM Tris pH 7.5, RIPA lysate, SDS/PAGE, immunoblot for HSF1 trimers; details: remark: other sources report otherwise
T1 chain: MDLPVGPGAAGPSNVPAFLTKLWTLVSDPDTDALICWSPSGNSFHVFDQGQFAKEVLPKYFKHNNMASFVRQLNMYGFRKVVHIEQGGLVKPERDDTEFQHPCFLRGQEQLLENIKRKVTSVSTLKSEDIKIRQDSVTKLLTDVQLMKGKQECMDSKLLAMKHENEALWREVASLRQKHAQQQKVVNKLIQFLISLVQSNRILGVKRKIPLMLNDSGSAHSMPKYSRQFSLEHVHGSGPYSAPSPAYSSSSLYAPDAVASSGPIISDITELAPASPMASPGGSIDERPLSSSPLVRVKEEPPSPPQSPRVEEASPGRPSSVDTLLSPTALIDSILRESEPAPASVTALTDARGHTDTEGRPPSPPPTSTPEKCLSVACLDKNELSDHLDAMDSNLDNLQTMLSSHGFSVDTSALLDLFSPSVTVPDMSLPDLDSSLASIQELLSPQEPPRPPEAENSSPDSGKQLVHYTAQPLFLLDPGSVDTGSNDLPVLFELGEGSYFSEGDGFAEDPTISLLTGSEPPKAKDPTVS

[2] = biological target: T1, FLAG-tagged WT-HSF1 (human), Q00613; assay: cross-linking + SEC; HEK-293 cells co-expressing AKT1 and WT- or T142A-HSF1, fixed with EGS; RIPA lysate on Superdex 200 Increase 10/300 GL in 50 mM Tris pH 8.0, 150 mM NaCl, 1% NP-40, 4 °C; fractions immunoblotted for HSF1; details: remark: other sources report otherwise

- binding against the reference (TFIIB; sites S326): weaker
Molecule: HSF1 (from UniProt Q00613) FLAG-S326A-HSF1

- binding against the reference (TFIIB; sites T527): lost
Molecule: HSF1 (from UniProt Q00613) FLAG-T527A-HSF1

- stoichiometry N [1]: 3
- stoichiometry N [2]: 3
B1: FLAG-tagged WT-HSF1, Q00613 1-529 (natural protein)
chain: MDLPVGPGAAGPSNVPAFLTKLWTLVSDPDTDALICWSPSGNSFHVFDQGQFAKEVLPKYFKHNNMASFVRQLNMYGFRKVVHIEQGGLVKPERDDTEFQHPCFLRGQEQLLENIKRKVTSVSTLKSEDIKIRQDSVTKLLTDVQLMKGKQECMDSKLLAMKHENEALWREVASLRQKHAQQQKVVNKLIQFLISLVQSNRILGVKRKIPLMLNDSGSAHSMPKYSRQFSLEHVHGSGPYSAPSPAYSSSSLYAPDAVASSGPIISDITELAPASPMASPGGSIDERPLSSSPLVRVKEEPPSPPQSPRVEEASPGRPSSVDTLLSPTALIDSILRESEPAPASVTALTDARGHTDTEGRPPSPPPTSTPEKCLSVACLDKNELSDHLDAMDSNLDNLQTMLSSHGFSVDTSALLDLFSPSVTVPDMSLPDLDSSLASIQELLSPQEPPRPPEAENSSPDSGKQLVHYTAQPLFLLDPGSVDTGSNDLPVLFELGEGSYFSEGDGFAEDPTISLLTGSEPPKAKDPTVS
